Experimental data: patent publication US9345743B2, “Agent for promoting proliferation of bifidobacteria” (MORINAGA MILK INDUSTRY CO., LTD., priority 2011, dated 2016)

What was measured:
Experiment in all cases: Bifidobacterium proliferation promoting activity, turbidity at 630 nm after 16 h anaerobic culture in MRS medium
Assay type in all cases: cell-based
Settings in all cases: 37° C.
[1] = system: Bifidobacterium breve ATCC 15700
Method: (§1) A 9.375 μM aqueous solution of each peptide was adjusted to pH 6.5 with an HCl aqueous solution, and subjected to filtration sterilization using a 0.22-μm membrane. Each peptide solution was diluted with dilution water to obtain 9.375 μM, 3.125 μM, 0.9375 μM, and 0.3125 μM sample solutions. As the dilution water, purified water adjusted to pH 6.5 with an HCl solution and sterilized at 115° C. for 15 minutes was used.
(§2) Bifidobacterium proliferation promoting activities of the aforementioned peptides were evaluated as follows.
(§3) The bifidobacteria used for the experiment were as follows. These strains can be obtained from ATCC (American Type Culture Collection, http://www.atcc.org/). • Bifidobacterium infantis ATCC 15697^T • Bifidobacterium breve ATCC 15700^T • Bifidobacterium bifidum ATCC 29521^T
(§4) A cell suspension of each strain (100 μL) cryopreserved in a 10% skim milk medium was added to the MRS liquid medium (3 mL), and culture was performed at 37° C. for 16 hours under an anaerobic condition. The culture medium (100 μL) was added to the MRS liquid medium (3 mL). The MRS liquid medium was prepared by dissolving Difco Lactobacilli MRS Broth (5.5 g, BD, “Difco” is a registered trademark of Difco Laboratories, Incorporated), and L-cysteine monohydrochloride monohydrate (50 mg, Wako Pure Chemical Industries, Co., Ltd.) in pure water so as to obtain a final volume of 100 mL, adjusting the solution to pH 6.5 with an HCl aqueous solution, and sterilizing the solution at 115° C. for 15 minutes. Further, a concentrated medium containing the components at twofold concentrations was prepared in the same manner as described above, except that Difco Lactobacilli MRS Broth and L-cysteine monohydrochloride monohydrate were used in amounts of 11 g and 100 mg, respectively.
(§5) The aforementioned culture medium was diluted with the MRS liquid medium so as to obtain a turbidity of 0.8 measured at a wavelength of 630 nm. This diluted culture medium was further diluted 100 times with the MRS liquid medium. The obtained diluted culture medium is referred to as 1% diluted culture medium.
(§6) Anaerobic culture was performed at 37° C. for 16 hours in a mixture of 100 μL of the twofold concentrated culture medium, 80 μL of a sample solution or the dilution water, and 20 μL of the 1% diluted culture medium (inoculation volume was 0.1%) or the MRS liquid medium (inoculation volume was 0%) on a 96-well plate (FALCON 353072). The final concentration of the peptide in the mixture was 3.75 μM, 1.25 μM, 0.375 μM, 0.125 μM, or 0 μM.
(§7) After the culture, turbidity of each culture medium was measured at a wavelength of 630 nm, and the proliferation promoting ratio (%) was calculated in accordance with the following equation. Proliferation promoting ratio (%)=(ODS1−ODS0)/(ODC1−ODC0)×100−100
(§8) ODS1: Turbidity observed after culture performed at a sample concentration of 3.75 to 0.125 μM and inoculation volume of 0.1% for 16 hours
(§9) ODS0: Turbidity observed after culture performed at a sample concentration of 3.75 to 0.125 μM and inoculation volume of 0% for 16 hours
(§10) ODC0: Turbidity observed after culture performed at a sample concentration of 0 μM and inoculation volume of 0% for 16 hours
(§11) Bifidobacterium proliferation promoting activities of the aforementioned peptides were evaluated in the same manner as that of Example 1.

[2] = system: Bifidobacterium bifidum ATCC 29521
Method: as §1, §2, §3, §4, §5, §6, §7, §8, §9, §10, §11

[3] = system: Bifidobacterium infantis ATCC 15697
Method: as §1, §2, §3, §4, §5, §6, §7, §8, §9, §10, §11

B1: bovine lactoferrin (protein, UniProt P24627 20-708, looked up)
Lactotransferrin: APRKNVRWCTISQPEWFKCRRWQWRMKKLGAPSITCVRRAFALECIRAIAEKKADAVTLDGGMVFEAGRDPYKLRPVAAEIYGTKESPQTHYYAVAVVKKGSNFQLDQLQGRKSCHTGLGRSAGWIIPMGILRPYLSWTESLEPLQGAVAKFFSASCVPCIDRQAYPNLCQLCKGEGENQCACSSREPYFGYSGAFKCLQDGAGDVAFVKETTVFENLPEKADRDQYELLCLNNSRAPVDAFKECHLAQVPSHAVVARSVDGKEDLIWKLLSKAQEKFGKNKSRSFQLFGSPPGQRDLLFKDSALGFLRIPSKVDSALYLGSRYLTTLKNLRETAEEVKARYTRVVWCAVGPEEQKKCQQWSQQSGQNVTCATASTTDDCIVLVLKGEADALNLDGGYIYTAGKCGLVPVLAENRKSSKHSSLDCVLRPTEGYLAVAVVKKANEGLTWNSLKDKKSCHTAVDRTAGWNIPMGLIVNQTGSCAFDEFFSQSCAPGADPKSRLCALCAGDDQGLDKCVPNSKEKYYGYTGAFRCLAEDVGDVAFVKNDTVWENTNGESTADWAKNLNREDFRLLCLDGTRKPVTEAQSCHLAVAPNHAVVSRSDRAAHVKQVLLHQQALFGKNGKNCPDKFCLFKSETKNLLFNDNTECLAKLGGRPTYEEYLGTEYVTAIANLKKCSTSPLLEACAFLTR
B1 was tested, and the “Proliferation promoting ratio (%)” value ([1]; B. breve ATCC 15700, 0.125 μM) was 2%, the “Proliferation promoting ratio (%)” value ([1]; B. breve ATCC 15700, 0.375 μM) was 4% and the “Proliferation promoting ratio (%)” value ([1]; B. breve ATCC 15700, 1.25 μM) was 8%. The “Proliferation promoting ratio (%)” value ([1]; B. breve ATCC 15700, 3.75 μM) was 21%, the “Proliferation promoting ratio (%)” value ([2]; B. bifidum ATCC 29521, 0.125 μM) was 8% and the “Proliferation promoting ratio (%)” value ([2]; B. bifidum ATCC 29521, 0.375 μM) was 8%. The “Proliferation promoting ratio (%)” value ([2]; B. bifidum ATCC 29521, 1.25 μM) was 10%, the “Proliferation promoting ratio (%)” value ([2]; B. bifidum ATCC 29521, 3.75 μM) was 12% and the “Proliferation promoting ratio (%)” value ([3]; B. infantis ATCC 15697, 0.125 μM) was 1%. The “Proliferation promoting ratio (%)” value ([3]; B. infantis ATCC 15697, 0.375 μM) was 1%, the “Proliferation promoting ratio (%)” value ([3]; B. infantis ATCC 15697, 1.25 μM) was 13% and the “Proliferation promoting ratio (%)” value ([3]; B. infantis ATCC 15697, 3.75 μM) was 23%.
